These results are taken from publication PMC11411725.

In this assay the target is vCCI (viral CC chemokine inhibitor), wild type, from rabbitpox (rabbitpox), O10647. Kind of assay: SEC-MALS. Particulars: remark: other sources report otherwise. In general terms: SEC sorts molecules by how far they enter the pores of the column.

B1: CCL17 (CC chemokine ligand 17, TARC), wild type, Q92583 24-94 (ligand)
chain: ARGTNVGRECCLEYFKGAIPLRKLKTWYQTSEDCSRDAIVFVTVQGRAICSDPNNKRVKNAVKYLQSLERS
As usually defined, the stoichiometry N is the number of molecules, sites or subunits per partner or assembly. B1 returned a stoichiometry N of 1.
